Two molecules from publication PMC4131897 (Biochemistry, 2014) can be followed below.

One may read the Km as the substrate concentration at which the rate is half of its maximum. In general, kcat refers to the number of substrate molecules converted per active site and unit of time at saturation. For orientation: kcat/Km means the turnover number divided by the Michaelis constant.

In data set [1] the target is T1, BjPutA (proline utilization A) (Bradyrhizobium diazoefficiens, UniProt Q89E26).
T1 sequence (Q89E26 1-999): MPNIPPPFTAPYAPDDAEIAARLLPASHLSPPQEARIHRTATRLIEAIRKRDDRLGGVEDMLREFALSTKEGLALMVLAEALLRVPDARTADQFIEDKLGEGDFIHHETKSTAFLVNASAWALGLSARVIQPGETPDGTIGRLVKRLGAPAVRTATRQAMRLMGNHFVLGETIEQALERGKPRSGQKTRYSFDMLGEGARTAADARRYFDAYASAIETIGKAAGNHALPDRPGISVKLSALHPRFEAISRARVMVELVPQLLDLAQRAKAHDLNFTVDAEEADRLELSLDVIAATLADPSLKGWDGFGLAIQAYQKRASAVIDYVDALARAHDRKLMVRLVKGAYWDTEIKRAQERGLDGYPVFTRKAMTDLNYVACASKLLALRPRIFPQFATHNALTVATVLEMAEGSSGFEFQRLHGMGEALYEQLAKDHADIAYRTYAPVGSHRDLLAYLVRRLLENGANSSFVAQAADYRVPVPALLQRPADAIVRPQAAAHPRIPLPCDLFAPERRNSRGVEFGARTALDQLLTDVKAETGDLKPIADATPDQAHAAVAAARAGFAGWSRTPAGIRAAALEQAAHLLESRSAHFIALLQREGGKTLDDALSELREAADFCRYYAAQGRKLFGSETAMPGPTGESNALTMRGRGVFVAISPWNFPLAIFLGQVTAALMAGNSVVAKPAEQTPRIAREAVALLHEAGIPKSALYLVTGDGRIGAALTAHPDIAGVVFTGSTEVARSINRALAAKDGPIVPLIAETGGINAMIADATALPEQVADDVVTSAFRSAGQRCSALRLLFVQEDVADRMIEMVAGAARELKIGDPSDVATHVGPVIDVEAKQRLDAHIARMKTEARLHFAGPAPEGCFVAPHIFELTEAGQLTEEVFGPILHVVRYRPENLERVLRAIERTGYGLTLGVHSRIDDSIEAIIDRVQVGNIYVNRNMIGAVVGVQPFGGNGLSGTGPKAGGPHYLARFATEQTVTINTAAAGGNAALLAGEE
The experiment in a line: coupled PRODH-P5CDH assay, NADH formation at […] nm, substrate inhibition fit. The conditions noted are these: 0.1 mM CoQ1, 0.2 mM NAD+, 50 mM potassium phosphate pH 7.5, 25 mM NaCl. It counts as biochemical.

Substrate in data set [2]: COC1=C(OC)C(=O)C(CC=C(C)C)=C(C)C1=O
In words: purified protein. To be noted: 150 mM proline, 50 mM potassium phosphate pH 7.5, 23 °C.

Substrate in data set [3]: O=C(O)[C@@H]1CCCN1
The experiment in a line: purified protein. The conditions noted are these: 250 μM CoQ1, 50 mM potassium phosphate pH 7.5, 23 °C.

The molecule `O=C(O)[C@@H]1CCCN1` [proline] displayed a Ki in data set [1] of 24 ± 12 mM.

B1: BjPutA (proline utilization A) (Bradyrhizobium diazoefficiens USDA 110) (protein)
chain: T1 sequence (Q89E26 1-999)
Turning to B1, in the data set “purified protein [2]”, the Km worked out at 0.105 ± 0.006 mM, the kcat was 2.9 ± 0.1 s⁻¹ and the kcat/Km came out at 27600 ± 1710 M⁻¹ s⁻¹. In the data set “purified protein [3]”, the Km is reported as 43 ± 5 mM, the kcat came out at 3.1 ± 0.1 s⁻¹ and the kcat/Km stood at 72 ± 8.6 M⁻¹ s⁻¹.
